Data taken from PMC2661055, “The C-terminal sequence of the large hepatitis delta antigen is variable but retains the ability to bind clathrin” (Virology Journal, 2009).

B1: GST-LDIII_(C(198–210)) (GST fused to amino acids 198-210 of genotype III LDAg) (domain or fragment)
chain: FTPPPPGYYWVPG
notes: amino acids 198-210 of the large delta antigen of HDV genotype III, Peru-1 strain, GenBank L22063; Inserted downstream of GST in pGEX-4T1 by EcoRI and SalI; also called 13-amino-acid peptide of genotype III LDAg; source: E. coli BL21 (DE3), purified (glutathione beads); not shown: GST, N-terminal, kept
B3: 6XHis-CHC_((1–107)) (hexahistidine-tagged fragment, amino acids 1 to 107, of human clathrin heavy chain) (domain or fragment, UniProt Q00610 1-107, looked up)
chain: MAQILPIRFQEHLQLQNLGINPANIGFSTLTMESDKFICIREKVGEQAQVVIIDMNDPSNPIRRPISADSAIMNPASKVIALKAGKTLQIFNIEMKSKMKAHTMTDD
notes: human clathrin heavy chain, amino acids 1 to 107, cDNA amplified by RT-PCR and inserted downstream of the hexahistidine tag of pET-15b; also called fragment of CHC; 107-amino-acid peptide of CHC; source: E. coli BL21 (DE3), purified (nickel beads); not shown: His6, N-terminal, kept

What was measured:
[1] = molecular target: EGFP-LDIII (EGFP fused to full-length large hepatitis delta antigen of HDV genotype III, Peru-1 strain) (hepatitis delta virus genotype III (Peru-1 strain)); assay: co-IP; HuH-7 cells transfected with pEGFP-C3 or pEGFP-LD plasmids, TNF-α (30 ng/ml) for 2 h at 24 h post-transfection; lysate precipitated with anti-GFP, blot for CHC; CHC normalised to actin, genotype I set to 1, mean of three experiments
[2] = molecular target: EGFP-LDII (EGFP fused to full-length large hepatitis delta antigen of HDV genotype II, Taiwan-3 strain) (hepatitis delta virus genotype II (Taiwan-3 strain)); assay: as above
[3] = molecular target: B3; assay: pull-down; GST or GST-LD_(C(198–210)) on Glutathione Sepharose 4B beads incubated with E. coli produced, purified 6XHis-CHC_((1–107)) for 16 h at 4°C; three washes with 0.05% Tween-20 in PBS; SDS-PAGE, silver stain; mean of three experiments; conditions: both partners purified
[4] = molecular target: B1; assay: pull-down; GST or GST-LD_(C(198–210)) on Glutathione Sepharose 4B beads incubated with HuH-7 cell lysate for 16 h at 4°C; three washes with 0.05% Tween-20 in PBS; blot for CHC; mean of three experiments; conditions: one partner purified
[5] = molecular target: T1, GST-LDII_(C(198–210)) (GST fused to amino acids 198-210 of genotype II LDAg) (hepatitis delta virus genotype II …); assay: as above; conditions: one partner purified
T1 construct: amino acids 198-210 of the large delta antigen of HDV genotype II, Taiwan-3 strain, GenBank U19598; Inserted downstream of GST in pGEX-4T1 by EcoRI and SalI; also called 13-amino-acid peptide of genotype II LDAg; source: E. coli BL21 (DE3), purified (glutathione beads); not shown: GST, N-terminal, kept
T1 chain: GPSPPQQRLPLLE

[6] = molecular target: B1; assay: pull-down; GST or GST-LD_(C(198–210)) on Glutathione Sepharose 4B beads incubated with E. coli produced, purified 6XHis-CHC_((1–107)) for 16 h at 4°C; three washes with 0.05% Tween-20 in PBS; SDS-PAGE, silver stain; mean of three experiments; conditions: both partners purified
[7] = molecular target: T1, GST-LDII_(C(198–210)) (GST fused to …); assay: as above; conditions: both partners purified

Question: Which results are given for “clathrin heavy chain (full-length, endogenous in HuH-7 cells) (from UniProt Q00610 1-1675) (natural protein)”?
Answer: amount of CHC co-precipitated, ratio to EGFP-LDI (fold of EGFP-LDI) [1]: 2.2; amount of CHC co-precipitated, ratio to EGFP-LDI (fold of EGFP-LDI) [2]: 2.6

Question: Does B1 bind [3]?
Answer: binds

B2: clathrin heavy chain (full-length, endogenous in HuH-7 cells) (natural protein, human (endogenous in HuH-7), UniProt Q00610 1-1675, looked up)
chain: MAQILPIRFQEHLQLQNLGINPANIGFSTLTMESDKFICIREKVGEQAQVVIIDMNDPSNPIRRPISADSAIMNPASKVIALKAGKTLQIFNIEMKSKMKAHTMTDDVTFWKWISLNTVALVTDNAVYHWSMEGESQPVKMFDRHSSLAGCQIINYRTDAKQKWLLLTGISAQQNRVVGAMQLYSVDRKVSQPIEGHAASFAQFKMEGNAEESTLFCFAVRGQAGGKLHIIEVGTPPTGNQPFPKKAVDVFFPPEAQNDFPVAMQISEKHDVVFLITKYGYIHLYDLETGTCIYMNRISGETIFVTAPHEATAGIIGVNRKGQVLSVCVEEENIIPYITNVLQNPDLALRMAVRNNLAGAEELFARKFNALFAQGNYSEAAKVAANAPKGILRTPDTIRRFQSVPAQPGQTSPLLQYFGILLDQGQLNKYESLELCRPVLQQGRKQLLEKWLKEDKLECSEELGDLVKSVDPTLALSVYLRANVPNKVIQCFAETGQVQKIVLYAKKVGYTPDWIFLLRNVMRISPDQGQQFAQMLVQDEEPLADITQIVDVFMEYNLIQQCTAFLLDALKNNRPSEGPLQTRLLEMNLMHAPQVADAILGNQMFTHYDRAHIAQLCEKAGLLQRALEHFTDLYDIKRAVVHTHLLNPEWLVNYFGSLSVEDSLECLRAMLSANIRQNLQICVQVASKYHEQLSTQSLIELFESFKSFEGLFYFLGSIVNFSQDPDVHFKYIQAACKTGQIKEVERICRESNCYDPERVKNFLKEAKLTDQLPLIIVCDRFDFVHDLVLYLYRNNLQKYIEIYVQKVNPSRLPVVIGGLLDVDCSEDVIKNLILVVRGQFSTDELVAEVEKRNRLKLLLPWLEARIHEGCEEPATHNALAKIYIDSNNNPERFLRENPYYDSRVVGKYCEKRDPHLACVAYERGQCDLELINVCNENSLFKSLSRYLVRRKDPELWGSVLLESNPYRRPLIDQVVQTALSETQDPEEVSVTVKAFMTADLPNELIELLEKIVLDNSVFSEHRNLQNLLILTAIKADRTRVMEYINRLDNYDAPDIANIAISNELFEEAFAIFRKFDVNTSAVQVLIEHIGNLDRAYEFAERCNEPAVWSQLAKAQLQKGMVKEAIDSYIKADDPSSYMEVVQAANTSGNWEELVKYLQMARKKARESYVETELIFALAKTNRLAELEEFINGPNNAHIQQVGDRCYDEKMYDAAKLLYNNVSNFGRLASTLVHLGEYQAAVDGARKANSTRTWKEVCFACVDGKEFRLAQMCGLHIVVHADELEELINYYQDRGYFEELITMLEAALGLERAHMGMFTELAILYSKFKPQKMREHLELFWSRVNIPKVLRAAEQAHLWAELVFLYDKYEEYDNAIITMMNHPTDAWKEGQFKDIITKVANVELYYRAIQFYLEFKPLLLNDLLMVLSPRLDHTRAVNYFSKVKQLPLVKPYLRSVQNHNNKSVNESLNNLFITEEDYQALRTSIDAYDNFDNISLAQRLEKHELIEFRRIAAYLFKGNNRWKQSVELCKKDSLYKDAMQYASESKDTELAEELLQWFLQEEKRECFGACLFTCYDLLRPDVVLETAWRHNIMDFAMPYFIQVMKEYLTKVDKLDASESLRKEEEQATETQPIVYGQPQLMLTAGPSVAVPPQAPFGYGYTAPPYGQPQPGFGYSM
notes: clathrin heavy chain, endogenous in the human hepatoma cell line HuH-7, detected with anti-clathrin heavy chain; also called CHC; source: endogenous, HuH-7 lysate
Question: How did the “normalized amount of CHC bound, ratio to genotype I” value [4] turn out when B2 was run?
Answer: 1.3 fold of genotype I

Question: What about the “normalized amount of CHC bound, ratio to genotype I” value [5] of the same molecule?
Answer: 1.6 fold of genotype I

Question: For B3, which “amount of CHC fragment pulled down, ratio to GST-LDI_(C(198–210))” value [6] is on record?
Answer: 0.7 fold of GST-LDI_(C(198–210))

Question: And the “amount of CHC fragment pulled down, ratio to GST-LDI_(C(198–210))” value [7]?
Answer: 1.4 fold of GST-LDI_(C(198–210))
